In the experiment the test system is intracellular proteome of ENR+CD and ENR organoids. Description: LC-MS/MS TMT proteomics of ENR+CD versus ENR organoids. It counts as cell-based, C57BL/6 mice. Conditions: for Average logFC: ENR+CD versus ENR organoids, sample pairs in aggregate (n=4, 2 technical replicates from two biological donors); for M1-1 Log2 Median Normalized / M1-2 Log2 Median Normalized / M2-1 Log2 Median Normalized / M2-2 Log2 Median Normalized: protein abundance ratio ENR+CD versus ENR organoids, LC-MS/MS TMT proteomics; for M1-1 Log2 Median Normalized: sample pair M1-1; for M1-2 Log2 Median Normalized: sample pair M1-2; for M2-1 Log2 Median Normalized: sample pair M2-1; for M2-2 Log2 Median Normalized: sample pair M2-2; for change: up = enriched in ENR+CD, down = enriched in ENR, FDR<0.05 and log fold change cut-off.

B1: Q9JJ78 (protein, UniProt Q9JJ78 1-330, looked up)
chain: MEGINNFKTPNKSEKRKSVLCSTPCVNIPASPFMQKLGFGTGVSVYLMKRSPRGLSHSPWAVKKISLLCDDHYRTVYQKRLTDEAKILKNLNHPNIIGYRAFTEASDGSLCLAMEYGGEKSLNDLIEERNKDSGSPFPAAVILRVALHMARGLKYLHQEKKLLHGDIKSSNVVIKGDFETIKICDVGVSLPLDENMTVTDPEACYIGTEPWKPKEALEENGIITDKADVFAFGLTLWEMMTLCIPHVNLPDDDVDEDATFDESDFDDEAYYAALGTRPSINMEELDDSYQKAIELFCVCTNEDPKDRPSAAHIVEALELDGQCCGLSSKH
modifications: full-length
Consider B1, for which the “Average logFC” value was −1.167, the “M1-1 Log2 Median Normalized” value was −1.497, the “M1-2 Log2 Median Normalized” value was −0.959 and the “M2-1 Log2 Median Normalized” value is given as −0.7695. Also, the “M2-2 Log2 Median Normalized” value is on record as −1.442 and the change entry was “down”.

B2: Q9ERZ0 (protein, UniProt Q9ERZ0 1-503, looked up)
chain: MDMGKGRPRLKLPQMPEAHPQKSCAPDIIGSWSLRNREQLRKRKAEAQGRQTSQWLLGEQKKRKYQRTGKGNKRGRKRQGNVEQKAEPWSQTERERVQEVLVSAEEETEHPGNSATEALPLVPSPTKAVPADQCSEAHQESIQCQERAIQNHSQTHLSPTTCQGIAVLQHSPKMCQDMAEPEVFSPNMCQETAVPQTYPPKALEEMAAAEPLSPKMCQETTVSPNHSSKVPQDMAGPEALSPNMCQEPTVPQEHTLKMCHDVARPEVLSPKTHQEMAVPKAFPCVTPGDAAGLEGCAPKALPQSDVAEGCPLDTTPTSVTPEQTTSDPDLGMAVTEGFFSEARECTVSEGVSTKTHQEAVEPEFISHETYKEFTVPIVSSQKTIQESPEPEQYSPETCQPIPGPENYSLETCHEMSGPEDLSIKTCQDREEPKHSLPEGAQKVGGAQGQDADAQDSENAGAFSQDFTEMEEENKADQDPEAPASPQGSQETCPENGIYSSALF
modifications: full-length
Consider B2, for which the “Average logFC” value is −1.361, the “M1-1 Log2 Median Normalized” value was −1.833, the “M1-2 Log2 Median Normalized” value is given as −1.41 and the “M2-1 Log2 Median Normalized” value is listed as −1.0155. The “M2-2 Log2 Median Normalized” value was −1.185 and the change entry is reported as “down”.

B3: Q9JHT5 (protein, UniProt Q9JHT5 1-344, looked up)
chain: MAAGCCGVKKQKLSSSPPSGSGGGGGASSSSHCSGESQCRAGELGLGGAGTRLNGLGGLSGGGGSGGGGGCPLSPPQGCGGGGGGGGGGGSGSGGGGISLSPPLSCGVGTLLSTPAAATASSPSSSSSSPGSRKMVVSAEMCCFCFDVLYCHLYGYQQPRTPRFTNEPYPLFVTWKIGRDKRLRGCIGTFSAMNLHSGLREYTLTSALKDSRFPPMTRDELPRLFCSVSLLTNFEDVCDYLDWEVGVHGIRIEFINEKGSKRTATYLPEVAKEQGWDHIQTIDSLLRKGGYKAPITNEFRKTIKLTRYRSEKMTLSYAEYLAHRQHHHFQNGIGHPLPPYNHYS
modifications: full-length
B3: the “Average logFC” value worked out at 1.464, the “M1-1 Log2 Median Normalized” value was 1.463, the “M1-2 Log2 Median Normalized” value is on record as 1.751 and the “M2-1 Log2 Median Normalized” value is 1.5015. Besides, the “M2-2 Log2 Median Normalized” value worked out at 0.056 and the change result is recorded as “up”.

B4: Q9JIB0 (protein, UniProt Q9JIB0 1-185, looked up)
chain: MEPNRNCPLFGGAFSAILPTGAIDVSDLRPVPDNQEVFCHPVTDQSLIIELLELQAHVQGEAAARYHFEDVGRVQGARAVHVLSVQPLCLENLSLRGCCQDAWSLSGKQQVAKENQQVAKDVTLHQALLRLPQYQTDLLLTFNQPPCHSRSLGPENLSCPPWSLSNFEQLVTSLTLHDPNLFGPQ
modifications: full-length
As to B4, the “Average logFC” value is −1.426, the “M1-1 Log2 Median Normalized” value is recorded as −1.2, the “M1-2 Log2 Median Normalized” value was −1.555 and the “M2-1 Log2 Median Normalized” value is recorded as −1.6355. Moreover, the “M2-2 Log2 Median Normalized” value is −1.315 and the change result was “down”.

B5: Q9QXD6 (protein, UniProt Q9QXD6 1-338, looked up)
chain: MANHAPFETDISTLTRFVMEQGRKAQGTGELTQLLNSLCTAIKAISSAVRQAGIAQLYGIAGSTNVTGDQVKKLDILSNDLVINMLKSSYATCVLVSEENTNAIIIEPEKRGKYVVCFDPLDGSSNIDCLVSIGTIFGIYRKKSTDEPSEKDALQPGRDLVAAGYALYGSATMLVLAMDCGVNCFMLDPSIGEFIMVDRDVKMKKKGNIYSLNEGYAKDFDPAINEYLQRKKFPPDGSAPYGARYVGSMVADIHRTLVYGGIFLYPANKKSPSGKLRLLYECNPIAYVMEKAGGLATTGDKDILDIVPTEIHQKAPVVMGSSEDVQEFLEIYRKHKAK
modifications: full-length
As to B5, the “Average logFC” value is −1.895, the “M1-1 Log2 Median Normalized” value was −1.892, the “M1-2 Log2 Median Normalized” value is −2.49 and the “M2-1 Log2 Median Normalized” value is −2.2475. The “M2-2 Log2 Median Normalized” value is −0.495 and the change entry is given as “down”.

B6: Q9JJK5 (protein, UniProt Q9JJK5 1-391, looked up)
chain: MEPEPQPEPVTLLVKSPNQRHRDLELSGDRSWSVSRLKAHLSRVYPERPRPEDQRLIYSGKLLLDHQCLQDLLPKQEKRHVLHLVCNVKNPSKMPETSTKGAESTEQPDNSNQTQHPGDSSSDGLRQREVLRNLSPSGWENISRPEAVQQTFQGLGPGFSGYTTYGWLQLSWFQQIYARQYYMQYLAATAASGTFVPTPSAQEIPVVSTPAPAPIHNQFPAENQPANQNAAAQAVVNPGANQNLRMNAQGGPLVEEDDEINRDWLDWTYSAATFSVFLSILYFYSSLSRFLMVMGATVVMYLHHVGWFPFRQRPVQNFPDDGGPRDAANQDPNNNLQGGMDPEMEDPNRLPPDREVLDPEHTSPSFMSTAWLVFKTFFASLLPEGPPALAN
modifications: full-length
On to B6, for which the “Average logFC” value is given as 1.444, the “M1-1 Log2 Median Normalized” value was 1.863, the “M1-2 Log2 Median Normalized” value turned out to be 0.766 and the “M2-1 Log2 Median Normalized” value amounted to 1.1435. Further, the “M2-2 Log2 Median Normalized” value was 2.005 and the change entry is “up”.

B7: Q9ERH4 (protein, UniProt Q9ERH4 1-427, looked up)
chain: MTVPSAEELDSFKYSDLQNLAKRLGLRANMKADKLLKALKAHLNPETRKENKNQDENQFSTDETEIHVSSEEQAETESGGHVTKTRRRRRKKHKTIHGIPTSQTLLQDHLEMKGTDSSNFQNQENQENQDPRDTAEVPSLPEQRPEDGNAASSGEGEVNDIKDSKKPLEKRSLCTDEFSKLGNNKRTSATTPNFKKLHEARFKKMESIDEYIMRKKKHLKEHSSLNELKLDKKGIVTPVPPRGRLSVPCTPARQQCPQGHSATKMNVRFSAATKDNEHKCSLTKTPARKSPHVTAPGSASKGQAVFRTPKSKATERTSIAVITPFKLMTEATQTPSSSKKPVFDLKASLSRPLNYKPHKGKLKPWGQAKENNSLNERVSRVTFHRKTYKQPHLQTREERWKRQEQERKEKKEKLLEARRNLGVTKAQ
modifications: full-length
Consider B7, for which the “Average logFC” value is −1.264, the “M1-1 Log2 Median Normalized” value was −1.354, the “M1-2 Log2 Median Normalized” value is −0.911 and the “M2-1 Log2 Median Normalized” value is −1.2565. Moreover, the “M2-2 Log2 Median Normalized” value was −1.536 and the change entry is on record as “down”.

B8: Q9JMH7 (protein, UniProt Q9JMH7 1-418, looked up)
chain: MEEVPPYSLSSTLFQQEEQSGVTYRIPALLYLPPTHTFLAFAEKRTSVRDEDAACLVLRRGLMKGRSVQWGPQRLLMEATLPGHRTMNPCPVWEKNTGRVYLFFICVRGHVTERCQIVWGKNAARLCFLCSEDAGCSWGEVKDLTEEVIGSEVKRWATFAVGPGHGIQLHSGRLIIPAYAYYVSRWFLCFACSVKPHSLMIYSDDFGVTWHHGKFIEPQVTGECQVAEVAGTAGNPVLYCSARTPSRFRAEAFSTDSGGCFQKPTLNPQLHEPRTGCQGSVVSFRPLKMPNTYQDSIGKGAPATQKCPLLDSPLEVEKGAETPSATWLLYSHPTSKRKRINLGIYYNRNPLEVNCWSRPWILNRGPSGYSDLAVVEEQDLVACLFECGEKNEYERIDFCLFSDHEVLSCEDCTSPSSD
modifications: full-length
B8: the “Average logFC” value is −1.61, the “M1-1 Log2 Median Normalized” value is −1.209, the “M1-2 Log2 Median Normalized” value is reported as −1.761 and the “M2-1 Log2 Median Normalized” value was −1.8685. Besides, the “M2-2 Log2 Median Normalized” value is given as −1.601 and the change entry is “down”.

B9: Q9JME5 (protein, UniProt Q9JME5 1-1082, looked up)
chain: MSAAPAYSEDKGGSAGPGEPEYGHDPASGGIFSSDYKRHDDLKEMLDTNKDSLKLEAMKRIVAMIARGKNASDLFPAVVKNVACKNIEVKKLVYVYLVRYAEEQQDLALLSISTFQRGLKDPNQLIRASALRVLSSIRVPIIVPIMMLAIKEAASDMSPYVRKTAAHAIPKLYSLDSDQKDQLIEVIEKLLADKTTLVAGSVVMAFEEVCPERIDLIHKNYRKLCNLLIDVEEWGQVVIISMLTRYARTQFLSPTQNESLLEENPEKAFYGSEEDEAKGPGSEEAATAALPARKPYVMDPDHRLLLRNTKPLLQSRSAAVVMAVAQLYFHLAPKAEVGVIAKALVRLLRSHSEVQYVVLQNVATMSIKRRGMFEPYLKSFYIRSTDPTQIKILKLEVLTNLANETNIPTVLREFQTYIRSMDKDFVAATIQAIGRCATNIGRVRDTCLNGLVQLLSNRDELVVAESVVVIKKLLQMQPAQHGEIIKHLAKLTDNIQVPMARASILWLIGEYCEHVPKIAPDVLRKMAKSFTAEEDIVKLQVINLAAKLYLTNSKQTKLLTQYVLSLAKYDQNYDIRDRARFTRQLIVPSEQGGALSRHAKKLFLAPKPAPILESSFKDRDHFQLGSLSHLLNAKATGYQELPDWPEEAPDPSVRNVEVPEWTKCSNREKRKEKEKPFYSDSEGESGPTESADSEPESESESESKSSSGSGSGESSSESDNEEEDEEKGGGSESEQSEEEDEKKKKTKKKKASEGHREGSSSEEGSDSSSSSESEVTSESEEEQVEPASWRKKTPPGSKSAPVAKEISLLDLEDFTPPSVQPVSPPMVVSTSLAADLEGLTLTDSSLVPSLLSPVSSIGRQELLHRVAGEGLSVDYAFSRQPFSGDPHMVSLHIYFSNNSETPIKGLHVGTPKLPAGISIQEFPEIESLAPGESTTTVMGINFCDSTQAANFQLCTQTRQFYVSIQPPVGELMAPVFMSENEFKKEQGKLTGMNEITEKLTLPDTCRSDHMVVQKVTATANLGRVPCGTSDEYRFAGRTLTSGSLVLLTLDARAAGAAQLTVNSEKMVIGTMLVKDVIQALTQ
modifications: full-length
Regarding B9, the “Average logFC” value is recorded as −1.256, the “M1-1 Log2 Median Normalized” value is listed as −1.059, the “M1-2 Log2 Median Normalized” value is −1.31 and the “M2-1 Log2 Median Normalized” value is reported as −1.1945. The “M2-2 Log2 Median Normalized” value was −1.459 and the change entry is given as “down”.
